Test results from patent US20210355206A1 (Novartis, published 2021).
Changes are numbered by the printed parent chain.

T1: Mouse Epo (mouse, UniProt P07321 27-192)
T1 sequence: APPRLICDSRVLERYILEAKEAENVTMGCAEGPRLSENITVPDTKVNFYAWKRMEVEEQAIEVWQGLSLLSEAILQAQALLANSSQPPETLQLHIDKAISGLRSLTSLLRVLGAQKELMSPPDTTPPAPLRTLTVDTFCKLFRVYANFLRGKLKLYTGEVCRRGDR

T2: Rat Epo (rat, UniProt P29676 27-192)
T2 sequence: T1 sequence with E55K, I61V, L81Q, T90S, T124A, P126Q, P127A, V135A, A146S, V160A

T3: Rabbit Epo (rabbit, UniProt Q9GKA2 29-195, limits assumed)
T3 sequence: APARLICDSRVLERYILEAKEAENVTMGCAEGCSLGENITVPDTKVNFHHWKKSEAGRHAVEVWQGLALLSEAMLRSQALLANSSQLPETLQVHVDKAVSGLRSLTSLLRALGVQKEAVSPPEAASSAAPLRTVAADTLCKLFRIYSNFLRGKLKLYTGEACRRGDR

B1: NVS4 (Fab, V domains shown)
VH: QVQLVQSGAEVKKPGASVKVSCKASGYTFTSYYMSWVRQAPGQGLEWMGWINPLKGNTNYAQKFQGRVTMTRDTSISTAYMELSRLRSEDTAVYYCAREGMYFDIWGQGTLVTVSS
VL: SYELTQPLSVSVALGQTARITCSGDSIGDKYVYWYQQKPGQAPVLVIYDTNKRPSGIPERFSGSNSGNTATLTISRAQAGDEADYYCQSWDLDFNTYVFGGGTKLTVLG
notes: Human FabCys format; also called Fab NVS4; derived from initial antibody 11317
B2: NVS3 (Fab, V domains shown)
VH: QVQLQQSGPGLVKPSQTLSLTCAISGDSVSSNTAAWNWIRQSPSRGLEWLGVIYYRSKWYNDYAVSVKSRITINPDTSKNQFSLQLNSVTPEDTAVYYCARSVPGGDPGLEHAFAYWGRGTLVTVSS
VL: SYVLTQPPSVSVAPGKTARITCSGDNLGTYYVEWYQQKPGQAPVLVIYDDSDRPSGIPERFSGSNSGNTATLTISRVEAGDEADYYCASFASWSDSVFGGGTKLTVLG
notes: Human FabCys format; also called Fab NVS3; derived from initial antibody 11380
B3: NVS1 (Fab, V domains shown)
VH: QVQLVQSGAEVKKPGSSVKVSCKASGGTFRSYAISWVRQAPGQGLEWMGGIDPISGFADYAQKFQGRVTITADESTSTAYMELSSLRSEDTAVYYCARELYYPGTWMAVMAYWGRGTLVTVSS
VL: SYVLTQPPSVSVAPGKTARITCSGDNIPEYYVHWYQQKPGQAPVLVIYRDNERPSGIPERFSGSNSGNTATLTISRVEAGDEADYYCQVFDESSWHWVFGGGTKLTVLG
notes: Human FabCys format (VH-CH1 ending EPKSC, lambda light chain); also called Fab NVS1; derived from initial antibody 11319
B4: NVS2 (Fab, V domains shown)
VH: EVQLVQSGAEVKKPGESLKISCKGSGYSFTSYWIGWVRQMPGKGLEWMGWIDPYRSEIRYSPSFQGQVTISADKSISTAYLQWSSLKASDTAMYYCARVSSEPFDSWGQGTLVTVSS
VL: SYVLTQPPSVSVAPGKTARITCSGDKLGDHYAYWYQQKPGQAPVLVIYDDSKRPSGIPERFSGSNSGNTATLTISRVEAGDEADYYCATWTFEGDYVFGGGTKLTVLG
notes: Human FabCys format; also called Fab NVS2; anti-EPO Fab

Columns and labels:
Mouse Epo [1] = biological target: T1, Mouse Epo; assay: SET
Procedure: (§1) In SET, a constant amount of antibody is incubated with different concentrations of antigen until equilibrium is reached. The concentration of free antibody in the equilibrated solution is determined by applying the solution on an antigen coated MSD™ plate (Meso Scale Discovery™) followed by incubation with an ECL-labeled secondary antibody and measurement of signal intensity. […] If a sufficient number of antigen concentrations in a matching range are available, the titration curve allows for a reasonable determination of the affinity, using the appropriate fit model.
(§2) Streptavidin-coated standard MSD plates (Meso-Scale Discovery, 384-well: MSD cat #L11 SA) were blocked with 25 μl incubation buffer at RT for 1 hr. […] Plates were washed 3× in TBST buffer. […] Plates were washed 3× in TBST buffer. 25 μl detection antibody was added (Anti-Human (Goat) Sulfo-TAG, 1:1000 in incubation buffer, MSD cat #R32AJ-1), and incubated at RT for 60 min. Plates were washed 3× in wash buffer, and 50 μl of 1× MSD Read buffer T was added (with surfactant, MSD cat #R92TC-1). Plates were read on a MSD Spector Imager 6000.

Rat Epo [2] = biological target: T2, Rat Epo; assay: SET
Procedure: as §1, §2

Mouse Epo [3] = biological target: T1, Mouse Epo; assay: SPR (Biacore T200), Fab captured by anti-human Fab, Epo as analyte, 25 C
Procedure: (§3) Three flow cells were utilized for the method run. […] Both capture and binding steps were carried out on flow cells 2-4.
(§4) The resulting signals were adjusted by double referencing, thus subtracting the refraction index values from the reference flow cell and the binding step with no analyte. Data was collected at 10 Hz and analyzed using the Biacore® T100 Evaluation Software Version 1.1 (GE Healthcare). This program uses a global fitting analysis method for the determination of rate and affinity constants for each interaction.

Rat Epo [4] = biological target: T2, Rat Epo; assay: as above
Procedure: as §3, §4

Rabbit Epo [5] = biological target: T3, Rabbit Epo; assay: solution equilibrium titration (SET), MSD ECL read-out, Fab with Epo titration
Procedure: as §1, §2

Mouse Epo [6] = biological target: T1, Mouse Epo; assay: as above
Procedure: as §1, §2

Rat Epo [7] = biological target: T2, Rat Epo; assay: as above
Procedure: as §1, §2

Rabbit Epo [8] = biological target: T3, Rabbit Epo; assay: SPR (Biacore T200), Fab captured by anti-human Fab, Epo as analyte, 25 C
Procedure: as §3, §4

Rabbit Epo [9] = biological target: T3, Rabbit Epo; assay: SPR (Biacore T200), Fab captured by anti-human Fab, Epo as analyte, 25 C; single datapoint
Procedure: as §3, §4

Mouse Epo [10] = biological target: T1, Mouse Epo; assay: as above
Procedure: as §3, §4

Rat Epo [11] = biological target: T2, Rat Epo; assay: as above
Procedure: as §3, §4

Mouse Epo [12] = biological target: T1, Mouse Epo; assay: solution equilibrium titration (SET), MSD ECL read-out, Fab with Epo titration; single datapoint
Procedure: as §1, §2

Rat Epo [13] = biological target: T2, Rat Epo; assay: as above
Procedure: as §1, §2

Rat Epo [14] = biological target: T2, Rat Epo; assay: SET; rat Epo
Procedure: as §1, §2

Mouse Epo [15] = biological target: T1, Mouse Epo; assay: SET; mouse Epo
Procedure: as §1, §2

Row | Binder | Kd (Mouse Epo [1]) | Kd (Rat Epo [2]) | Kd (Mouse Epo [3]) | Kd (Rat Epo [4]) | Kd (Rabbit Epo [5]) | Kd (Mouse Epo [6]) | Kd (Rat Epo [7]) | Kd (Rabbit Epo [8]) | Kd (Rabbit Epo [9]) | Kd (Mouse Epo [10]) | Kd (Rat Epo [11]) | Kd (Mouse Epo [12]) | Kd (Rat Epo [13]) | Kd (Rat Epo [14]) | Kd (Mouse Epo [15])
1 | B1 | < 0.01 nM | < 0.01 nM | 0.0305 nM | 0.0344 nM | 28.7 nM | 0.0078 nM | 0.0127 nM |  |  |  |  |  |  |  | 
2 | B2 |  |  | 0.001 nM | 0.038 nM | 0.0399 nM | 0.0025 nM | 0.0012 nM | 0.674 nM |  |  |  |  |  |  | 
3 | B3 |  |  |  |  |  |  |  |  | 0.661 nM | 0.022 nM | 0.041 nM | 0.0161 nM | 0.0054 nM |  | 
4 | B4 |  |  | 0.0449 nM | 0.0566 nM | 3.86 nM | 0.037 nM | 0.0127 nM | 5.16 nM |  |  |  |  |  | < 0.02 nM | < 0.05 nM
